Laboratory results from patent US20100190693A1.

Tests used:
[1] = target: KIX-VP16 (UniProt Q92793); assay: cell-based or functional assay
[2] = target: CBP (endogenous, HIT cells) (hamster); assay: cell-based or functional assay

Chain of KIX-VP16 (Q92793 587-666): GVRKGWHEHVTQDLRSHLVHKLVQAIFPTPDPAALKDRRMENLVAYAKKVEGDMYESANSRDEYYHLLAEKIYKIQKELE

| GAL4 luciferase reporter in HIT cells, response to cAMP [2] | Substance | GAL4 luciferase reporter, mammalian two-hybrid assay in HIT cells, forskolin [1] |
| --- | --- | --- |
| – | GAL4-KID (from UniProt P16220 87-146) | 20 fold |
| 2.5 fold | GAL4-CREB M1 (Ser133Ala) (from UniProt P04386 1-147; P16220 1-341) | – |
| 10 fold | GAL4-CREB, wild-type (from UniProt P04386 1-147; P16220 1-341) | – |
